Assays:
PAR-1 peptide = biological target: T1, PAR-1 peptide (Homo sapiens, UniProt P25116); test: ELISA binding to PAR-1 peptide
T1 sequence (P25116 38-66 limits assumed): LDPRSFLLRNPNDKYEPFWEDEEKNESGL
Procedure: (§1) The molecular selectivity of antibodies for PAR-2 versus PAR-1 and PAR-4 was assessed using peptides derived from the N-terminal regions of all three PARs: […]

PAR-4 peptide = biological target: T2, PAR-4 peptide (Homo sapiens, UniProt Q96RI0, C54S); test: ELISA binding to PAR-4 peptide
T2 sequence (Q96RI0 44-71 C54S): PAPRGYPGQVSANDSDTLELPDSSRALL
Procedure: as §1

PAR-2 [1] = biological target: T3, PAR-2 (Homo sapiens, UniProt P55085); test: Binding to PAR-2 transfected HEK293 cells; type: cell-based; design: expressed in transfected cells; host or cells: HEK293; conditions: for Ratio of EC50 Fab EC50 IgG: HEK-PAR-2 binding; for EC50: Fab, read-out: Binding of Fab to HEK-PAR-2 (#3) (3RBO64) EC50
T3 sequence (P55085 26-397): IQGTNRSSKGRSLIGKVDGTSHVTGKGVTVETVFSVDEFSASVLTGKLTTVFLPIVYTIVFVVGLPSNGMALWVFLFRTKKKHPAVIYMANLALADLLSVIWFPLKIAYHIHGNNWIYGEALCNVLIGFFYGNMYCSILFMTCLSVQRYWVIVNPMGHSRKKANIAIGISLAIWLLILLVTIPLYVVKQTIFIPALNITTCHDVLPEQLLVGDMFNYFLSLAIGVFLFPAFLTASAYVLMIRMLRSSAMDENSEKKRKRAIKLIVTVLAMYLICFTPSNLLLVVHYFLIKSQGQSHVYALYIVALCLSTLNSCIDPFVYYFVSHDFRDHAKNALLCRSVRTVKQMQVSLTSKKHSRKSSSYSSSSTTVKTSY
Text: These Fabs were then converted to the IgG4_Pro (“IgG4p”) format. The IgG4_Pro antibodies consist of the variable VH and VL regions derived from corresponding Fabs fused to the constant regions of human IgG4 including a Ser241Pro mutation in the hinge region of the H-chain. The proline substitution in the hinge region is known to prevent the formation of half-molecules in natural human IgG4 molecules (Angal et al. (1993) Molec. Immunol. 30:105-108).

PAR-2 peptide = PAR-2 peptide (Homo sapiens, UniProt P55085); test: ELISA binding to PAR-2 peptide; conditions: peptide coupled to Transferrin
Procedure: as §1

mouse PAR-2 = biological target: T4, mouse PAR-2 (Mus musculus, UniProt P55086); test: FLIPR trypsin-induced calcium release in mouse LLC cells; type: cell-based
T4 construct: endogenous in cells; host or cells: LLC (mouse Lewis lung carcinoma)
T4 sequence (P55086 26-399): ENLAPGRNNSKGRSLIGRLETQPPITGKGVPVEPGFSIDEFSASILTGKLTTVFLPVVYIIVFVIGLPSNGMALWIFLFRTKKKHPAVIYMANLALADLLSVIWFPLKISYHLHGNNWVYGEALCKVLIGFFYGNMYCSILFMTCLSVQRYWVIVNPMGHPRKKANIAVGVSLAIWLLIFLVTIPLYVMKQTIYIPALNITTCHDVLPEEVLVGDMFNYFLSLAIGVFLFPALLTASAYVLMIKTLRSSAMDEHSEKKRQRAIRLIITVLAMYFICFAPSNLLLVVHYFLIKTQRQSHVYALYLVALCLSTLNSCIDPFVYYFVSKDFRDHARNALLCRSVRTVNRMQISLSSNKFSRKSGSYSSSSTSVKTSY
Procedure: To further assess functional cross-reactivity with mouse PAR-2, the antibodies were tested in FLIPR assays with the mouse Lewis lung carcinoma (LLC) cell line.

PAR-2 [2] = biological target: T3, PAR-2; test: Trypsin induced calcium response (FLIPR) in A549 cells; type: cell-based; design: expressing endogenous PAR-2; endogenous in cells; host or cells: A549; conditions: for inhibition of trypsin mediated calcium response/release in A549 (in words): full antibodies
Procedure: Using A549 cells, PAR-2 activation was measured by detecting the calcium response following trypsin stimulation. Fabs were tested in this assay for their ability to inhibit this response. […] Antibody concentrations are expressed as μg/ml (FIG. 6).
(§2) Thrombin activates PAR-1, whereas PAR-2 is activated by trypsin in A549 cells.

PAR-1 = biological target: T5, PAR-1 (Homo sapiens, UniProt P25116); test: Thrombin-induced calcium response (FLIPR) in A549 cells; type: cell-based; conditions: antibody concentrations up to 300 nM
T5 construct: endogenous in cells; host or cells: A549
T5 sequence (P25116 22-425): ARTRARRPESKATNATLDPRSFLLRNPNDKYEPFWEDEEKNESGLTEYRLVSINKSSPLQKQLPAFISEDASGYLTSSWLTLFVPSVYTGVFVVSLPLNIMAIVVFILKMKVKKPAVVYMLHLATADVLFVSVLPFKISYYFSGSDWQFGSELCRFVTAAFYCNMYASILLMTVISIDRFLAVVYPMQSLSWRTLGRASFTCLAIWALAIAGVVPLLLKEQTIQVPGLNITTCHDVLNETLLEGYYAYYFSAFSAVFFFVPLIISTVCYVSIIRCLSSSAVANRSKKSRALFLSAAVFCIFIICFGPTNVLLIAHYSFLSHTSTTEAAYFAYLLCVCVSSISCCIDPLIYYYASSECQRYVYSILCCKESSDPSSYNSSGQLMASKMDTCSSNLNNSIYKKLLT
Text: as §2

B1: Ab4999: affinity matured from Ab3777, L-CDR3 optimized; light chain SEQ ID NO:27, heavy chain SEQ ID NO:7 (antibody, V domains shown)
VH: QVQLVESGGGLVQPGGSLRLSCAASGFTFSSYAMNWVRQAPGKGLEWVSTISYSSSATSYADSVKGRFTISRDNSKNTLYLQMNSLRAEDTAVYYCARIQNDPMDVWGQGTLVTVSS
VL: DIELTQPPSVSVAPGQTARISCSGDNLGKKYVQWYQQKPGQAPVLVIYDDSNRPSGIPERFSGSNSGNTATLTISGTQAEDEADYYCQTWDYSSIRDETNVFGGGTKLTVLGQ
modifications: Antibody identified via phage display; Antibody modified via affinity maturation
binding to PAR-1 peptide (in words) (PAR-1 peptide): did not exhibit detectable binding
binding to PAR-4 peptide (in words) (PAR-4 peptide): no binding
Ratio of EC50 Fab EC50 IgG (PAR-2 [1]): 0.3
binding to PAR-2 peptide (in words) (PAR-2 peptide): specific binding

B2: Ab4994: affinity matured from Ab3777, H-CDR2 optimized; heavy chain SEQ ID NO:21, light chain SEQ ID NO:6 (antibody, V domains shown)
VH: QVQLVESGGGLVQPGGSLRLSCAASGFTFSSYAMNWVRQAPGKGLEWVSAISYSGHLTGYADSVKGRFTISRDNSKNTLYLQMNSLRAEDTAVYYCARIQNDPMDVWGQGTLVTVSS
VL: DIELTQPPSVSVAPGQTARISCSGDNLGKKYVQWYQQKPGQAPVLVIYDDSNRPSGIPERFSGSNSGNTATLTISGTQAEDEADYYCSSWDVGSDGWVFGGGTKLTVLGQ
modifications: Antibody modified via affinity maturation; Antibody identified via phage display
EC50 (PAR-2 [1]): 1.9 nM
Ratio of EC50 Fab EC50 IgG (PAR-2 [1]): 4.8

B3: Par-C: codon-optimized anti-PAR-2 antibody; Ab4999 light chain (SEQ ID NO:37), Ab5007 or Ab5151 heavy chain (SEQ ID NO:39) (antibody, V domains shown)
VH: QVELVESGGGLVQPGGSLRLSCAASGFTFSSYAMNWVRQAPGKGLEWVSAISFSGHLTGYADSVKGRFTISRDNSKNTLYLQMNSLRAEDTAVYYCARIQNDPMDVWGQGTLVTVSS
VL: DIELTQPPSVSVAPGQTARISCSGDNLGKKYVQWYQQKPGQAPVLVIYDDSNRPSGIPERFSGSNSGNTATLTISGTQAEDEADYYCQTWDYSSIRDETNVFGGGTKLTVLGQ
modifications: Optimized cDNA sequence of variable region of Ab5007 or Ab5151 heavy chain; Optimized cDNA sequence of variable region of Ab4999 light chain
inhibition of trypsin-induced calcium release in LLC cells (in words) (mouse PAR-2): efficient inhibition
IC50 (mouse PAR-2; trypsin-induced, value (SD)): 0.7 nM
inhibition of trypsin mediated calcium response/release in A549 (in words) (PAR-2 [2]): potent inhibition
IC50 (PAR-2 [2]; trypsin stimulated, value (SD)): 1 nM

B4: Ab5151: cross-cloned: light chain of Ab4999 combined with the heavy chain of Ab5007 (antibody, V domains shown)
VH: QVQLVESGGGLVQPGGSLRLSCAASGFTFSSYAMNWVRQAPGKGLEWVSAISFSGHLTGYADSVKGRFTISRDNSKNTLYLQMNSLRAEDTAVYYCARIQNDPMDVWGQGTLVTVSS
VL: DIELTQPPSVSVAPGQTARISCSGDNLGKKYVQWYQQKPGQAPVLVIYDDSNRPSGIPERFSGSNSGNTATLTISGTQAEDEADYYCQTWDYSSIRDETNVFGGGTKLTVLGQ
binding to PAR-1 peptide (in words) (PAR-1 peptide): did not exhibit detectable binding
inhibition of the thrombin induced calcium response (in words) (PAR-1): no inhibition
binding to PAR-4 peptide (in words) (PAR-4 peptide): no binding
inhibition of trypsin mediated calcium response/release in A549 (in words) (PAR-2 [2]): significant inhibition
binding to PAR-2 peptide (in words) (PAR-2 peptide): specific binding

B5: Ab5003: affinity matured from Ab3777, H-CDR2 optimized; heavy chain SEQ ID NO:24, light chain SEQ ID NO:6 (antibody, V domains shown)
VH: QVQLVESGGGLVQPGGSLRLSCAASGFTFSSYAMNWVRQAPGKGLEWVSAISYKGHLTGYADSVKGRFTISRDNSKNTLYLQMNSLRAEDTAVYYCARIQNDPMDVWGQGTLVTVSS
VL: DIELTQPPSVSVAPGQTARISCSGDNLGKKYVQWYQQKPGQAPVLVIYDDSNRPSGIPERFSGSNSGNTATLTISGTQAEDEADYYCSSWDVGSDGWVFGGGTKLTVLGQ
modifications: Antibody modified via affinity maturation; Antibody identified via phage display
EC50 (PAR-2 [1]): 7.03 nM
Ratio of EC50 Fab EC50 IgG (PAR-2 [1]): 15.3

B6: Ab4997: affinity matured from Ab3777, H-CDR2 optimized; heavy chain SEQ ID NO:23, light chain SEQ ID NO:6 (antibody, V domains shown)
VH: QVQLVESGGGLVQPGGSLRLSCAASGFTFSSYAMNWVRQAPGKGLEWVSAISYNGKLKGYADSVKGRFTISRDNSKNTLYLQMNSLRAEDTAVYYCARIQNDPMDVWGQGTLVTVSS
VL: DIELTQPPSVSVAPGQTARISCSGDNLGKKYVQWYQQKPGQAPVLVIYDDSNRPSGIPERFSGSNSGNTATLTISGTQAEDEADYYCSSWDVGSDGWVFGGGTKLTVLGQ
modifications: Antibody modified via affinity maturation; Antibody identified via phage display
EC50 (PAR-2 [1]): 3.03 nM
Ratio of EC50 Fab EC50 IgG (PAR-2 [1]): 8.0

B7: Ab5007: affinity matured from Ab3777, H-CDR2 optimized; heavy chain SEQ ID NO:26, light chain SEQ ID NO:6 (antibody, V domains shown)
VH: QVQLVESGGGLVQPGGSLRLSCAASGFTFSSYAMNWVRQAPGKGLEWVSAISFSGHLTGYADSVKGRFTISRDNSKNTLYLQMNSLRAEDTAVYYCARIQNDPMDVWGQGTLVTVSS
VL: DIELTQPPSVSVAPGQTARISCSGDNLGKKYVQWYQQKPGQAPVLVIYDDSNRPSGIPERFSGSNSGNTATLTISGTQAEDEADYYCSSWDVGSDGWVFGGGTKLTVLGQ
modifications: Antibody modified via affinity maturation; Antibody identified via phage display
EC50 (PAR-2 [1]): 9.66 nM
Ratio of EC50 Fab EC50 IgG (PAR-2 [1]): 19.3

From US20100119506A1, “Effectors of PAR-2 Activation and Their Use in the Modulation of Inflammation” (BOEHRINGER INGELHEIM INTERNATIONAL GMBH, priority 2008, published 2010)
